Here are results for 77 sequences from the supplement of paper PMC7877785.

A short description of this series: self-splicing fitness, log relative to wild type (ln ratio); higher = more splicing; Tetrahymena group I intron in knt gene, E. coli kanamycin selection, DiMSum; sequences stand for … in CUCUCU…GGAGGGAAAAGUUAUCAGGCAUGCACCUGGUAGCUAGUCUUUAAACCAAUAGAUUGCAUCGGUUUAAAAGGCAAGACCGUCAAAUUGCGGGAAAGGGGUCAACAGCCGUUCAGUACCAAGUCUCAGGGGAAACUUUGAGAUGGCCUUGCAAAGGGUAUGGUAAUAAGCUGACGGACAUGGUCCUAACCACGCAGCCAAGUCCUAAGUCAACAGAUCUUCUGUUGAUAUGGAUGCAGUUCACAGACUAAAUGUCGGUCGGGGAAGAUGUAUUCUUCUCAUAAGAUAUAGUCGGACCUCUCCUUAAUGGGAGCUAGCGGAUGAAGUGAUGCAACACUGGAGCCGCUGGGAACUAAUUUGUAUGCGAAAGUAUAUUGAUUAGUUUUGGAGUACUCGUGGUCG
A digest of the protocol: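 A randomised library covering all eight P1ex-region intron nucleotides was built with the intron in the knt kanamycin-resistance gene on pET-22b(+) and held in E. coli BL21(DE3). Cells were grown overnight at 37°C or 30°C on LB agar, with or without 25 μg/mL kanamycin, plus 100 μg/mL carbenicillin, 50 μM IPTG and 0.2% rhamnose, and pooled colonies were amplicon-sequenced on an Illumina HiSeq 2500. DiMSum fitness is the error-weighted combination of wild-type-normalised replicate fold changes, kanamycin versus none.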

± gives the uncertainty stated by the source.

Consider UGUUAGCAAUAUUACGCGAU, for which the “self-splicing fitness (ln)” value reads like this: (30 °C) -3.44 ± 0.47; (37 °C) -1.9 ± 0.4. The matching figures for UGUUAGCAAUAUUACGCGCC: -1.13 ± 0.14 and -0.207 ± 0.24. For the sequence UGUUAGCAAUAUUACGCGGC, for the setting “37 °C”, the “self-splicing fitness (ln)” value is -3.46 ± 0.29.

As for UGUUAGCAAUAUUACGCUGU, the “self-splicing fitness (ln)” value was -2.07 ± 0.23 (30 °C) and -0.914 ± 0.2 (37 °C). The matching figures for UGUUAGCAAUAUUACGCUUA: -1.73 ± 0.18 and -0.323 ± 0.21. In the case of UGUUAGCAAUAUUACGGAAG, the “self-splicing fitness (ln)” value is, setting by setting: (30 °C) -3.18 ± 0.3; (37 °C) -1.37 ± 0.17. With UGUUAGCAAUAUUACGGACG, the “self-splicing fitness (ln)” value (30 °C) is -0.811 ± 0.15 and the “self-splicing fitness (ln)” value (37 °C) is -0.257 ± 0.17. The like results for UGUUAGCAAUAUUACGGCGG were, in that order, -0.72 ± 0.09 and -0.356 ± 0.1.

For UGUUAGCAAUAUUACGGGAU, where the note is “30 °C”, the “self-splicing fitness (ln)” value was -1.94 ± 0.23. As to UGUUAGCAAUAUUACGGGGC, the “self-splicing fitness (ln)” value is, setting by setting: (30 °C) -3.37 ± 0.34; (37 °C) -3.32 ± 0.46. The matching figures for UGUUAGCAAUAUUACGGGUC: -2.97 ± 0.44 and -1.53 ± 0.3. With UGUUAGCAAUAUUACGGUCU, the “self-splicing fitness (ln)” value (30 °C) was -1.33 ± 0.09 and the “self-splicing fitness (ln)” value (37 °C) is -0.963 ± 0.1. The matching figures for UGUUAGCAAUAUUACGUAUA: -1.7 ± 0.12 and -0.458 ± 0.11. For the sequence UGUUAGCAAUAUUACGUAUG, the “self-splicing fitness (ln)” value (30 °C) is -0.871 ± 0.13 and the “self-splicing fitness (ln)” value (37 °C) was -0.234 ± 0.17. With UGUUAGCAAUAUUACGUCAA, the “self-splicing fitness (ln)” value reads like this: (30 °C) -1.27 ± 0.12; (37 °C) -1.2 ± 0.11. Turning to UGUUAGCAAUAUUACGUUCA, the “self-splicing fitness (ln)” value (30 °C) turned out to be 0.071 ± 0.12 and the “self-splicing fitness (ln)” value (37 °C) is -0.114 ± 0.14.

Regarding UUAAAGCAAUAUUACGAAUC, the “self-splicing fitness (ln)” value (30 °C) was -3.58 ± 0.26 and the “self-splicing fitness (ln)” value (37 °C) is -1.79 ± 0.16. Turning to UUAAAGCAAUAUUACGACAC, the “self-splicing fitness (ln)” value (30 °C) was -1.54 ± 0.18 and the “self-splicing fitness (ln)” value (37 °C) was -0.0824 ± 0.22. Take UUAAAGCAAUAUUACGAGCA: the “self-splicing fitness (ln)” value by setting is: (30 °C) -0.0954 ± 0.082; (37 °C) 0.177 ± 0.11. With UUAAAGCAAUAUUACGAGUA, the “self-splicing fitness (ln)” value (30 °C) was -1.08 ± 0.096 and the “self-splicing fitness (ln)” value (37 °C) was -0.715 ± 0.11.

Take UUAAAGCAAUAUUACGAUAC: the “self-splicing fitness (ln)” value is -1.57 ± 0.13 (30 °C) and -0.384 ± 0.16 (37 °C). As to UUAAAGCAAUAUUACGAUUC, the “self-splicing fitness (ln)” value reads like this: (30 °C) -1.07 ± 0.1; (37 °C) -0.514 ± 0.11.

On to UUAAAGCAAUAUUACGCAAC, for which the “self-splicing fitness (ln)” value runs as follows: (30 °C) -3.92 ± 0.25; (37 °C) -1.75 ± 0.14.

On to UUAAAGCAAUAUUACGCACA, for which the “self-splicing fitness (ln)” value (30 °C) amounted to 0.245 ± 0.098 and the “self-splicing fitness (ln)” value (37 °C) was -0.401 ± 0.12.

With UUAAAGCAAUAUUACGCUAA, the “self-splicing fitness (ln)” value by setting is: (30 °C) -0.626 ± 0.1; (37 °C) -0.111 ± 0.12.

For UUAAAGCAAUAUUACGCUAG, the “self-splicing fitness (ln)” value (30 °C) is -0.313 ± 0.092 and the “self-splicing fitness (ln)” value (37 °C) was 0.141 ± 0.11.

For the sequence UUAAAGCAAUAUUACGCUCU, the “self-splicing fitness (ln)” value by setting is: (30 °C) -0.795 ± 0.15; (37 °C) 0.21 ± 0.14.

Regarding UUAAAGCAAUAUUACGCUUU, the “self-splicing fitness (ln)” value reads like this: (30 °C) -4.36 ± 0.35; (37 °C) -1.94 ± 0.24. The like results for UUAAAGCAAUAUUACGGCCC were, in that order, -1.67 ± 0.17 and 0.305 ± 0.23. The matching figures for UUAAAGCAAUAUUACGGCUC: -0.0999 ± 0.18 and 0.714 ± 0.23. The like results for UUAAAGCAAUAUUACGGGCA were, in that order, -0.351 ± 0.12 and 0.329 ± 0.16. UUAAAGCAAUAUUACGGUCC: the “self-splicing fitness (ln)” value (37 °C) is -1.2 ± 0.36. As to UUAAAGCAAUAUUACGGUCU, the “self-splicing fitness (ln)” value reads like this: (30 °C) -0.805 ± 0.074; (37 °C) -0.3 ± 0.098. The matching figures for UUAAAGCAAUAUUACGUAAC: -2.67 ± 0.17 and -1.62 ± 0.2.

On to UUAAAGCAAUAUUACGUCAU, for which the “self-splicing fitness (ln)” value is, setting by setting: (30 °C) -1.94 ± 0.18; (37 °C) -0.671 ± 0.17. The matching figures for UUAAAGCAAUAUUACGUCGG: -0.114 ± 0.074 and 0.43 ± 0.091. In the case of UUAAAGCAAUAUUACGUCGU, the “self-splicing fitness (ln)” value (30 °C) was -1.76 ± 0.11 and the “self-splicing fitness (ln)” value (37 °C) was -0.737 ± 0.12. The like results for UUAAAGCAAUAUUACGUGCA were, in that order, -0.0172 ± 0.1 and 0.542 ± 0.13.

In the case of UUAAAGCAAUAUUACGUGGU, the “self-splicing fitness (ln)” value runs as follows: (30 °C) -3.26 ± 0.12; (37 °C) -2.73 ± 0.15. For UUAAAGCAAUAUUACGUGUA, the “self-splicing fitness (ln)” value is -0.993 ± 0.066 (30 °C) and 0.0738 ± 0.08 (37 °C). The like results for UUAAAGCAAUAUUACGUUUC were, in that order, -3.92 ± 0.39 and -1.18 ± 0.31. The matching figures for UUACAGCAAUAUUACGAACG: -0.834 ± 0.1 and -0.112 ± 0.13.

For the sequence UUACAGCAAUAUUACGAAGA, the “self-splicing fitness (ln)” value runs as follows: (30 °C) -1.25 ± 0.15; (37 °C) -0.992 ± 0.15. Regarding UUACAGCAAUAUUACGAAUU, the “self-splicing fitness (ln)” value reads like this: (30 °C) -3.13 ± 0.22; (37 °C) -3.1 ± 0.24. For the sequence UUACAGCAAUAUUACGACAC, where the note is “30 °C”, the “self-splicing fitness (ln)” value was -3.53 ± 0.43. On to UUACAGCAAUAUUACGACCU, for which the “self-splicing fitness (ln)” value (30 °C) was -1.38 ± 0.18 and the “self-splicing fitness (ln)” value (37 °C) was -1.25 ± 0.18. The matching figures for UUACAGCAAUAUUACGACGG: -0.531 ± 0.097 and 0.113 ± 0.13. As to UUACAGCAAUAUUACGAGAU, the “self-splicing fitness (ln)” value by setting is: (30 °C) -2.96 ± 0.25; (37 °C) -1.69 ± 0.24.

Take UUACAGCAAUAUUACGAGCG: the “self-splicing fitness (ln)” value by setting is: (30 °C) -0.688 ± 0.088; (37 °C) -0.631 ± 0.096. Take UUACAGCAAUAUUACGAGGC: the “self-splicing fitness (ln)” value (37 °C) was -1.85 ± 0.3.

In the case of UUACAGCAAUAUUACGAUAA, the “self-splicing fitness (ln)” value (30 °C) was -0.0512 ± 0.1 and the “self-splicing fitness (ln)” value (37 °C) was -0.232 ± 0.11.

Take UUACAGCAAUAUUACGAUAU: the “self-splicing fitness (ln)” value is, setting by setting: (30 °C) -1.83 ± 0.11; (37 °C) -0.951 ± 0.14. With UUACAGCAAUAUUACGCAAC, the “self-splicing fitness (ln)” value by setting is: (30 °C) -3.55 ± 0.33; (37 °C) -2.32 ± 0.27. As to UUACAGCAAUAUUACGCCAA, the “self-splicing fitness (ln)” value (30 °C) was -1.35 ± 0.17 and the “self-splicing fitness (ln)” value (37 °C) was -1.01 ± 0.17. The matching figures for UUACAGCAAUAUUACGCUCA: -0.512 ± 0.12 and -0.224 ± 0.13.

Consider UUACAGCAAUAUUACGGAAG, for which the “self-splicing fitness (ln)” value was -3 ± 0.13 (30 °C) and -2.05 ± 0.14 (37 °C). Turning to UUACAGCAAUAUUACGGACG, the “self-splicing fitness (ln)” value was -0.683 ± 0.079 (30 °C) and -0.00562 ± 0.096 (37 °C). Turning to UUACAGCAAUAUUACGGAGC, the “self-splicing fitness (ln)” value was -3.42 ± 0.38 (30 °C) and -1.79 ± 0.35 (37 °C). The matching figures for UUACAGCAAUAUUACGGAUU: -3.81 ± 0.24 and -2.08 ± 0.16.

As for UUACAGCAAUAUUACGGCAA, the “self-splicing fitness (ln)” value (30 °C) is -0.112 ± 0.11 and the “self-splicing fitness (ln)” value (37 °C) was -0.272 ± 0.12. The like results for UUACAGCAAUAUUACGGCGU were, in that order, -2.6 ± 0.14 and -2.57 ± 0.21.

As for UUACAGCAAUAUUACGGUCU, the “self-splicing fitness (ln)” value (30 °C) was -0.96 ± 0.075 and the “self-splicing fitness (ln)” value (37 °C) is -0.357 ± 0.088.

Turning to UUACAGCAAUAUUACGUAUG, the “self-splicing fitness (ln)” value runs as follows: (30 °C) -0.997 ± 0.054; (37 °C) -0.53 ± 0.068. The like results for UUACAGCAAUAUUACGUGGC were, in that order, -2.87 ± 0.26 and -2.92 ± 0.34. The matching figures for UUACAGCAAUAUUACGUGUA: -2.48 ± 0.084 and -1.48 ± 0.081. The matching figures for UUACAGCAAUAUUACGUUCA: -0.535 ± 0.11 and 0.086 ± 0.12.

Consider UUACAGCAAUAUUACGUUCU, for which the “self-splicing fitness (ln)” value is -1.6 ± 0.13 (30 °C) and -1.01 ± 0.11 (37 °C). The matching figures for UUAGAGCAAUAUUACGAACG: -0.913 ± 0.22 and -0.303 ± 0.19.

UUAGAGCAAUAUUACGAAGU: the “self-splicing fitness (ln)” value by setting is: (30 °C) -3.03 ± 0.21; (37 °C) -1.98 ± 0.28.

UUAGAGCAAUAUUACGACGU: the “self-splicing fitness (ln)” value is -2.39 ± 0.17 (30 °C) and -0.776 ± 0.21 (37 °C).

On to UUAGAGCAAUAUUACGAGAG, for which the “self-splicing fitness (ln)” value is -0.212 ± 0.24 (30 °C) and -1.7 ± 0.24 (37 °C). The matching figures for UUAGAGCAAUAUUACGAUCG: -1.29 ± 0.15 and -1.67 ± 0.16. For the sequence UUAGAGCAAUAUUACGCACC, the “self-splicing fitness (ln)” value (30 °C) was -3.79 ± 0.33 and the “self-splicing fitness (ln)” value (37 °C) was -2.04 ± 0.4. Regarding UUAGAGCAAUAUUACGCAUU, for the setting “30 °C”, the “self-splicing fitness (ln)” value is -3.24 ± 0.38. As to UUAGAGCAAUAUUACGCGAC, for the setting “30 °C”, the “self-splicing fitness (ln)” value was -3.78 ± 0.37. For the sequence UUAGAGCAAUAUUACGCGCU, the “self-splicing fitness (ln)” value (30 °C) was -1.84 ± 0.41 and the “self-splicing fitness (ln)” value (37 °C) was -1.11 ± 0.47.

Take UUAGAGCAAUAUUACGCGGA: the “self-splicing fitness (ln)” value was -1.29 ± 0.1 (30 °C) and -0.00507 ± 0.11 (37 °C).
